Test results reported in paper PMC2064158 (The Journal of Cell Biology, 2006).
Numbering of substitutions follows the chain as printed.

T1: AlexaFluor488-ScMad2^wt (S. cerevisiae, UniProt P40958 1-196, AlexaFluor488 succimidyl ester reactive dye, covalent, final dye/protein ratio ~0.5)
T1 sequence: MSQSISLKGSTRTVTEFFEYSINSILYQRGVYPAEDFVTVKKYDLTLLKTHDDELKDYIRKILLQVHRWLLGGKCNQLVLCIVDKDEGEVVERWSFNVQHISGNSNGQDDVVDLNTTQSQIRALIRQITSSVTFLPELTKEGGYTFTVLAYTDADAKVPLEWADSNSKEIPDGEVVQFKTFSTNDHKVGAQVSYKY

T2: ScMad2^RQEA (recombinant, Arg126-Glu/Gln127-Ala) (S. cerevisiae, UniProt P40958 1-196, R126E | Q127A)
T2 sequence: T1 sequence with R126E, Q127A

B1: ScMad2^ΔC (recombinant, six residues deleted from the C terminus) (domain or fragment)
chain: MSQSISLKGSTRTVTEFFEYSINSILYQRGVYPAEDFVTVKKYDLTLLKTHDDELKDYIRKILLQVHRWLLGGKCNQLVLCIVDKDEGEVVERWSFNVQHISGNSNGQDDVVDLNTTQSQIRALIRQITSSVTFLPELTKEGGYTFTVLAYTDADAKVPLEWADSNSKEIPDGEVVQFKTFSTNDHKVGA
B2: ScMad2^wt (recombinant S. cerevisiae Mad2, wild type) (natural protein)
chain: T1 sequence

Legend:
[1] = target: B2; assay: SEC
[2] = target: C-Mad2^wt–Cdc20^195–211 complex (S. cerevisiae, UniProt P40958;P26309); assay: SEC
[3] = target: B2; assay: pull-down
AlexaFluor488-HsMad2^wt = AlexaFluor488-HsMad2^wt (human, UniProt Q13257 1-205, AlexaFluor488, covalent); assay: SEC
AlexaFluor488-ScMad2^wt = target: T1, AlexaFluor488-ScMad2^wt; assay: SEC
[4] = target: T2, ScMad2^RQEA (recombinant, …); assay: ITC

Sequence of AlexaFluor488-HsMad2^wt (Q13257 whole entry): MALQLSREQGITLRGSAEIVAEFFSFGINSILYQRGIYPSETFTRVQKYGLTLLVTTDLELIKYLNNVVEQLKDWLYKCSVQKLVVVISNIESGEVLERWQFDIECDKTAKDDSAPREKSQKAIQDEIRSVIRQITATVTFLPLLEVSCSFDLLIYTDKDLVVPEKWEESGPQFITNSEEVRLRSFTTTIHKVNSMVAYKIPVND

B1: binds [1].

In the case of B2, the “percent of total Mad2 in the dimer peak at a 4:1 Mad2/Cdc20^195–211 ratio” value [2] is reported as roughly 50%.

IVFKQNVAEACGLDMNKRILQYMPEPP (domain or fragment) [GST-ScCdc20^184–210]: binds [3].

QLLQEKLEKLTKLKEKKIRILQLRDGPF (domain or fragment) [GST-ScMad1^563–590]: binds [3].

EHQKAWALNLNGFDVEEAKILRLSGKPQ [HsCdc20^111–138 synthetic peptide]: binds (AlexaFluor488-HsMad2^wt).

GLDMNKRILQYMPEPPK [ScCdc20^195–211 synthetic peptide]: binds (AlexaFluor488-ScMad2^wt); binds [4].
